Laboratory results published in article PMC4773759 (Scientific Reports, 2016).
Entries after “also recorded” stand apart in the source; their conditions may differ.

Tests used:
rhECE-1 [1] = molecular target: T1, rhECE-1 (Homo sapiens, UniProt P42892); experiment: ECE-1 activity, bradykinin-based QFS assay; format: biochemical; details: 10 ng/μL, rhECE-1 0.05 ng/μL, 1 h pre-incubation 37 °C, QFS 40 μM; comparisons with K49-P1-20 or enzyme alone
T1 construct: purchased R & D systems
T1 sequence (P42892 1-770): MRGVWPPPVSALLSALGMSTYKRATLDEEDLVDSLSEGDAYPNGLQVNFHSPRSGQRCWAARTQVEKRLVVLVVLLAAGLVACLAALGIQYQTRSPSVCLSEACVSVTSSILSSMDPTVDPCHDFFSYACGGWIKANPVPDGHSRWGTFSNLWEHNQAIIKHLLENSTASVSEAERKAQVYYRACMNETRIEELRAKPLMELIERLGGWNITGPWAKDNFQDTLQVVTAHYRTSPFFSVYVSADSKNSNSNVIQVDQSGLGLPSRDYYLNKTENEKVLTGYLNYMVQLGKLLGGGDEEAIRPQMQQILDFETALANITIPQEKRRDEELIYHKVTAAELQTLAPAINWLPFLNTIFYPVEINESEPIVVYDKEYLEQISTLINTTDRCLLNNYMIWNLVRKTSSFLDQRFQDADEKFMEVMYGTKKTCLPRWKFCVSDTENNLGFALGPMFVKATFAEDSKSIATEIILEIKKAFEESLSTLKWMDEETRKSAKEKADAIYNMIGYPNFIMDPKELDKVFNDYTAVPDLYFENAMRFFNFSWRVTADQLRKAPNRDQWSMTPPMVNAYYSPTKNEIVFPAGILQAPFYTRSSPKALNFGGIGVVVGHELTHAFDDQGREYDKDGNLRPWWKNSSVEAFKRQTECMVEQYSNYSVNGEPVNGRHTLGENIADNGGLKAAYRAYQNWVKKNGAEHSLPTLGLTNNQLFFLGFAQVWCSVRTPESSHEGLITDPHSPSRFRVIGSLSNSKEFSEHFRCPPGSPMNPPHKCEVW
Protocol: Enzyme activities were measured using a previously described bradykinin-based quenched fluorescent substrate (QFS) assay. Briefly, rhECE-1 or NEP (0.05 ng/μL) was incubated with ECE-1 buffer for 1 h at 37 °C. Where indicated, venom, B. asper myotoxin II or relevant synthetic peptide (10 ng/μL) was added to the reaction mixture and pre-incubated (1 h at 37 °C) with rhECE-1 or rhNEP prior to the addition of substrate ((7-methoxycoumarin-4-yl)acetyl-Arg-Pro-Pro-Gly-Phe-Ser-Ala-Phe-Lys(2, 4-dinitrophenyl); 40 μM final). The specificity of ECE-1 and NEP mediated cleavage was confirmed using the inhibitors CGS35066 (500 nM) and thiorphan (10 µM).
Increase in fluorescence over time (excitation and emission wavelengths of 320 and 405 nm respectively) was taken as evidence of enzyme activity. The specific activity for each enzyme was calculated using a standard curve of known 7-methoxycoumarin concentrations. Enzyme alone (rhECE-1, rhNEP, rhACE-2 and rhIDE) was used as a control in all studies examining the effect of K49-P1-20 on enzyme activity.
Non-linear regression analysis in GraphPad Prism software (version 6.04; Michaelis Menton equation) was used to calculate the enzyme kinetic parameters (Vmax and Km). In all enzyme assays the amount of substrate cleaved over 80 min was determined. Where indicated, enzyme activity in the presence of K49-P1-20 was expressed as a % of the respective control. The enzyme kinetic parameters were determined based on the rate of substrate cleavage.

trypsin = trypsin mediated cleavage of K49-P1-20
rhECE-1 [2] = molecular target: T1, rhECE-1; experiment: Cleavage of endogenous Aβ42 in cerebrospinal fluid by activated ECE-1 (ELISA); format: biochemical; details: CGS35066 500 nM, rhECE-1 0.04 ng/μL, K49-P1-20 300 ng/μL, 4 h
Protocol: Aβ42 levels were measured using a commercially available Human Aβ42 ELISA kit (Life technologies), according to the manufacturer’s instructions. rhECE-1 (0.04 ng/μL) alone, rhECE + K49-P1-20 (300 ng/μL) or rhECE + K49-P1-20 + CGS35066 (500 nM) was incubated at 37 °C for 1 hr. Cerebrospinal fluid (diluted 1:10 in assay buffer) from patients with Alzheimer’s disease was added to each reaction mixture. The final volume of cerebrospinal fluid added was kept to 1/10th the final volume of reaction mixture, which was adjusted using ECE-1 buffer. Aliquots of equal volume were taken at 0 and 4 h, snap frozen in dry ice and stored at −80 °C until analysed by ELISA. The amount of Aβ42 remaining after 4 h was expressed as a % of initial.

Molecule | Stimulation of ECE-1 activity (in words) (rhECE-1 [1]) | further results
K49-P9-34: synthetic peptide from the N-terminal region of B. asper myotoxin II | significantly less | –
B. asper myotoxin II | ECE-1 stimulation | –
SLFELGKMILQETGKNPAKS | – | cleaved bond (trypsin): K7-M8
K49-P1-34: synthetic peptide corresponding to the N-terminal region of B. asper myotoxin II | mimicked the stimulator effects; also recorded: No significant difference | –
O=C(O)C(Cc1ccc2c(c1)oc1ccccc12)NCP(=O)(O)O (centres unmarked) [CGS35066] | – | Effect on the Aβ42 decrease by ECE-1 + K49-P1-20 in cerebrospinal fluid (rhECE-1 [2]): blocked
